# In patent US20250009852A1, “DEPLETING EGFR AND HER2 OVERCOMES RESISTANCE TO EGFR INHIBITORS IN COLORECTAL CANCER” (Health Research, Inc., priority 2021, published 2025):
# Key:
# Format in all cases: cell-based, human
# RAS = RAS activity assay (Ras Activation ELISA) in cell lysates; conditions: 25 nM, 48 h
# Experimental: Ras activity in cell lysates was measured using a Ras Activation ELISA Kit from Cell Biolabs. Briefly, approximately 5×10^6 cells were mixed with 0.5 ml lysis buffer. Cell lysates were cleared by centrifugation at 14,000 g for 10 min at 4° C., and 250 μl per sample was mixed with 10 μl of 0.5 M EDTA with or without 5 μl of either 100× GTPγS or 100× GDP, which was incubated at 37° C. for 30 min with agitation and then mixed with 33 μl of 1 M MgCl2. The mixture after appropriate dilution was transferred at 100 μl per sample to a well in a 96-well plate immobilized with RAF-1 RAS-binding domain and incubated for 1 h at RT. After washing the wells 5 times with wash buffer, 100 μl of an anti-pan-RAS antibody was added to each well and incubated for 1 h at RT. After another round of wash, 100 μl of a secondary antibody-HRP conjugate was added to each well and incubated for 1 h at RT. After yet another round of wash, 100 μl of substrate solution was added to each well and incubated at RT for 20 min, followed by addition of 100 μl of stop solution to each well. Absorbance at 450 nm in each well was recorded by a Synergy 2 Multi-Mode Microplate Reader.
# PI3K = PI3K activity assay (PI3-Kinase Activity ELISA) in cell lysates; conditions: 25 nM, 48 h
# Experimental: PI3K activity was measured using a PI3-Kinase Activity ELISA Kit from Echelon Biosciences, following manufacturer's instruction. Briefly, PI3K was pulled down from whole cell lysates using an antibody for PI3K/p85. Each sample was prepared from approximately 1×10^6 cells. The entire immunoprecipitate from each sample was mixed with 30 μl of KBZ reaction buffer, which was then mixed with 30 μl of 10 μM PI(4,5)P2 substrate and incubated for 2 h at 37° C. The kinase reaction was terminated by adding 90 μl of kinase stop solution to each reaction solution, and 60 μl of each mixture was transferred together with 60 μl of PIP3 detector to a well in the incubation plate. After incubation at RT for 1 h, 100 μl per sample from the incubation plate was transferred to the detection plate and incubated for 1 h at RT. The detection plate was washed with TBST, incubated with the HRP-conjugated secondary detector for 30 min, washed again with TBST, and the immobilized HRP was measured by a standard colorimetric assay, using 3,3′,5,5′-tetramethylbenzedine as a substrate and a Synergy 2 Multi-Mode Microplate Reader to record absorbance.
# [1] = system: EGFR^R451C, EGFR^K467T, EGFR^S492R and WT EGFR; assay: Western blotting of SW620 cells transfected with EGFR or its mutant; conditions: 25 nM for 48 h, extent very similar to WT EGFR
# Excerpt: pGL4.51[luc2/CMV/Neo] was purchased from Promega (Cat #E132A). pCMV6-A-EGFR-puro, reported previously, was used as a template to generate single point mutations of EGFR, including R451C, K467T, and S492R, using the QuikChange Lightning Site-Directed Mutagenesis Kit (Agilent Technologies). The primers were purchased from IDT, including primers for generating EGFR^R451C (forward: 5′-[…]-3 (SEQ ID NO:2); reverse: 5′-[…]-3′ (SEQ ID NO:3), EGFR^K467T(forward: 5-[…]-3′ (SEQ ID NO:4); reverse: 5′-[…]-3′ (SEQ ID NO:5), and EGFR^S492R (forward: 5′-[…]-3′ (SEQ ID NO:6); reverse: 5′-[…]-3′ (SEQ ID NO:7)). All constructs were confirmed by DNA sequence analysis.
# Transfection of pCMV6-A-puro-EGFR, pCMV6-A-puro-EGFR^R451C, pCMV6-A-puro-EGFR^K467T or pCMV6-A-puro-EGFR^RS492R was performed using Lipofectamine 3000. SW620 cells were grown in 6-well plates (3×10^5 cells/well with 2 ml medium) for 24 h and then transfected with a plasmid at 1 μg DNA per well for 48 h. […]
# Protein concentrations in all samples were measured using the BCA Assay Kit. […] Proteins were transferred to polyvinylidene fluoride membrane, probed with specific antibodies, and detected using either Luminata Classico (Millipore) or Luminata Cresendo (Millipore). […] The beads were washed three times with IP buffer, suspended in 2× SDS loading buffer, boiled for 5 min, and analyzed by Western blotting.
# EGFR = assay: Immunofluorescence staining and confocal microscopy of EGFR trafficking in SW48 cells; conditions: serum-free medium, 25 nM, up to 6 h
# Experimental: SW48 cells were grown in chamber slides (4×10^4 cells/well) overnight with or without subsequent treatment with PEPD^G278D (25 nM) and/or chloroquine (25 μM) for up to 6 h. The cells were then washed with ice-cold PBS, fixed with 4% paraformaldehyde for 20 min at room temperature (RT), washed again with ice-cold PBS and blocked with 1% BSA in PBS for 1 h at RT. The cells were then incubated with an EGFR antibody, a His tag antibody for detection of PEPD^G278D, and/or a LAMP1 antibody overnight at 4° C., washed with PBS, incubated with a secondary antibody conjugated to Alexa-Fluor 488 or Alexa-Fluor 647 antibody for 1 h at RT and washed again with PBS. The cells were then examined with a BZ-X700 fluorescence microscope (Keyence) with a S PL FL ELWD ADM 40xC objective. Merged images from Z-stack were organized using the ImageJ software (NIH Image).
molecule,measurement,setting,value
"PEPD^G278D: recombinant and enzymatically inactive mutant of human peptidase D (PEPD), with replacement of glycine 278 by aspartic acid (protein, left off: small tags and cut ends) AAATGPSFWLGNETLKVPLALFALNRQRLCERLRKNPAVQAGSIVVLQGGEETQRYCTDTGVLFLQESFFHWAFGVTEPGCYGVIDVDTGKSTLFVPRLPASHATWMGKIHSKEHFKEKYAVDDVQYVDEIASVLTSQKPSVLLTLRGVNTDSGSVCREASFDGISKFEVNNTILHPEIVESRVFKTDMELEVLRYTNKISSEAHREVMKAVKVGMKEYGLESLFEHYCYSRGGMRHSSYTCICGSGENSAVLHYGHAGAPNDRTIQNGDMCLFDMDGEYYSVASDITCSFPRNGKFTADQKAVYEAVLLSSRAVMGAMKPGDWWPDIDRLADRIHLEELAHMGILSGSVDAMVQAHLGAVFMPHGLGHFLGIDVHDVGGYPEGVERIDEPGLRSLRTARHLQPGMVLTVEPGIYFIDHLLDEALADPARASFLNREVLQRFRGFGGVRIEEDVVVIDSGIELLTCVPRTVEEIEACMAGCDKAFTPFSGPK",inhibition of RAS activity,RAS; HCT116 cells,73%
same,inhibition of RAS activity,RAS; HT29 cells,75%
same,inhibition of RAS activity,RAS; SW48 cells,75%
same,inhibition of PI3K activity,PI3K; HCT116 cells,74%
same,inhibition of PI3K activity,PI3K; HT29 cells,71%
same,inhibition of PI3K activity,PI3K; SW48 cells,76%
same,inhibition of PI3K activity,PI3K; SW620 cells,not in SW620 cells
same,"downregulation (expression and phosphorylation) of each EGFR mutant R451C, K467T, S492R",[1],strongly downregulated
same,EGFR internalization and lysosomal degradation,EGFR,induces EGFR internalization and lysosomal degradation
